{"source": "patent US10857209B2", "about": "“Lysosomal acid lipase and PPAR gamma ligands as immune therapies for cancer treatment” (Indiana University Research and Technology Corporation, priority 2016, dated 2020)", "molecules": {"B1": {"name": "hLAL: human lysosomal acid lipase expressed from a doxycycline-controlled tissue-specific transgene in lal−/− mice; never administered as a protein (protein)", "chain": "GPKPVVFLQHGLLADSSNWVTNLANSSLGFILADAGFDVWMGNSRGNTWSRKHKTLSVSQDEFWAFSYDEMAKYDLPASINFILNKTGQEQVYYVGHSQGTTIGFIAFSQIPELAKRIKMFFALGPVASVAFCTSPMAKLGRLPDHLIKDLFGDKEFLPQSAFLKWLGTHVCTHVILKELCGNLCFLLCGFNERNLNMSRVDVYTTHSPAGTSVQNMLHWSQAVKFQKFQAFDWGSSAKNYFHYNQSYPPTYNVKDMLVPTAVWSGGHDWLADVYDVNILLTQITNLVFHESIPEWEHLDFIWGLDAPWRLYNKIINLMRKYQ", "modifications": "left off: small tags and cut ends", "notes": "human lysosomal acid lipase expressed from a doxycycline-controlled tissue-specific transgene in lal−/− mice; never administered as a protein"}}, "key": {"[1]": {"system": "B16 melanoma cells", "assay": "In vitro migration (wound healing) assay with pre-treated MDSCs", "type": "cell-based, mouse", "conditions": "co-culture with pre-treated lal−/− Ly6G+ cells; 24 hours; mitomycin C", "description": "In vitro wound healing assay was performed to analyze B16 melanoma cell migration. Briefly, B16 melanoma cells were seeded at a density of 1.5×10^5 cells/well into a 24-well plate and incubated overnight to form a confluent monolayer. Scratch was created by scraping the cell monolayer in a straight line with a p200 pipet tip. After washing 3 times with DMEM, the medium was changed with DMEM containing 10% FBS and 5 μg/mL mitomycin C (Sigma-Aldrich, St. Louis, Mo., USA), and MDSCs pre-treated with 9-HODE or ethanol for 24 hours were added onto B16 melanoma cell monolayer at a density of 1×10^6 cells/well. Images were taken at 0 and 24 hours after creating the scratch. Migration was estimated by measuring the distances from one side of scratch to the other side using Image Pro-Plus software (Media Cybernetics, Rockville, Md., USA)."}, "[2]": {"system": "Ly6G+CD11b+ cells", "assay": "Mitochondrial membrane potential (JC-1) in Ly6G+CD11b+ cells by flow cytometry", "type": "cell-based, mouse", "conditions": "lal−/− Ly6G+CD11b+ cells; 20 μmol/L, 48 hours; vs ethanol", "description": "The reactive oxygen species (ROS) level and mitochondrial membrane potential in MDSCs was measured by flow cytometry. Briefly, bone marrow cells were first treated with or without 20 μmol/L 9-HODE or ethanol for 2 days. For ROS level detection, cells were harvested, washed, and stained with 2′,7′-dichlorofluorescein diacetate (2 μmol/L, Invitrogen), allophycocyanin cy7-conjugated anti-Ly6G Ab, and phycoerythrin cy7-conjugated anti-CD 11b Ab (eBioscience) at 37° C. for 15 minutes. After PBS wash, the ROS level in Ly6G^+CD11b^+ cells was analyzed using a LSRII machine (BD Biosciences).\nFor mitochondrial membrane potential measurement, cells were stained with the fluorescent dye JC-1 (2 μmol/L, Molecular Probes, Eugene, Oreg., USA), allophycocyanin cy7-conjugated anti-Ly6G antibody, and phycoerythrin cy7-conjugated anti-CD 11b antibody (eBioscience) at 37° C. for 15 minutes, and then analyzed for phycoerythrin (JC-1 red) and fluorescein isothiocyanate (JC-1 green) fluorescent cells in Ly6G^+CD11b^+ cells by flow cytometry. Cells treated with 50 μmol/L carbonyl cyanide 3-chlorophenylhydrazone for 5 minutes were served as a fluorescein isothiocyanate-positive control."}, "[3]": {"system": "cytokines and chemokines", "assay": "Cytokines and chemokines in BALF and plasma (ELISA) and lung (RT-PCR) of CCSP-Tg/KO mice", "type": "in vivo, mouse", "description": "BALF was collected by 1 mL PBS. The expression levels of IL-6, GM-CSF, MCP-1 and TNFα in the BALF and plasma were measured using ELISA kits (BD Biosciences, San Jose, Calif.) according to the manufacturer's instructions.\nTotal RNAs were purified from lungs of lal^+/+, lal^−/− and CCSP-Tg/KO triple mice using RNeasy Mini Kits according to the manufacturer's instruction (Qiagen, Valencia, Calif., USA). Quantitative (q)RT-PCR was performed as described previously (Wu et al., Blood. 2012; 119:115-26). Analysis was performed by the 2^−ΔΔCT method. Primers of mIL-6, mIL-1β, mIL-10, mGM-CSF, mM-CSF, mTNF-α, mMCP-1, mCCL5 and GAPDH were used for real-time PCR."}, "[4]": {"assay": "Tissue lipid storage in LAP-Tg/KO mice (hepatocyte-specific hLAL expression)", "type": "in vivo, mouse", "conditions": "hepatocyte transgenic expression in lal−/− mice (doxycycline-untreated LAP-Tg/KO)", "from_the_text": "LAP-tTA/(TetO)7-CMV-hLAL; lal^−/− (LAP-Tg/KO) triple mice of the FVB/N background was established by cross-breeding of LAP-tTA transgenic mice (Jackson's Laboratory, Bar Harbor, Me.) with a previously generated (tetO)7-CMV-hLAL transgenic mice into lal^−/− mice. This triple transgenic mouse model was hepatocyte-specific Tet-off expression of wild-type hLAL in lal^−/− mice under the control of the LAP. All scientific protocols that involved the use of animals were approved by the Institutional Animal Care and Use Committee of Indiana University School of Medicine and followed guidelines established by the Panel on Euthanasia of the American Veterinary Medical Association. Animals were housed in a secured animal facility at Indiana University School of Medicine.\nTotal tissue lipids were extracted from the liver and small intestine by the Folch method (Folch et al., J Biol. Chem 1957, […]:497-509). Concentrations of CEs and TGs were determined as described in Due et al., J Lipid Res 2001, 42:489-500 and Du et al., J Immunol 2009, 182:1648-1659).\nFrozen tissue sections were prepared from the liver and intestine after a standard cryostat procedure. Tissue section slides were stained with Oil Red-O solution (0.5% in propylene glycol) in a 60° C. oven for 10 minutes and placed in 85% propylene glycol for 1 minute; slides were counter-stained in hematoxylin."}, "[5]": {"conditions": "doxycycline-treated CCSP-Tg/KO mice"}, "[6]": {"conditions": "doxycycline-treated vs untreated CCSP-Tg/KO mice"}}}
{"molecule": "9-hydroxyoctadecadienoic acid [9-HODE]", "values": [{"measurement": "B16 melanoma cell migration into wound area", "setting": "[1]", "value": "delayed migration towards the scratch"}, {"measurement": "mitochondrial membrane potential", "setting": "[2]", "value": "partially recovered"}]}
{"molecule": "B1", "values": [{"measurement": "lung GM-CSF mRNA level", "setting": "[3]; [5]", "value": "remained unchanged"}, {"measurement": "lung mRNA levels of IL-6, MCP-1, TNFα, CCL5, IL-10 and IL-1β", "setting": "[3]; [5]", "value": "significantly down-regulated"}, {"measurement": "IL-6, GM-CSF, MCP-1 and TNFα concentrations in BALF (ELISA)", "setting": "[3]; [6]", "value": "significantly decreased"}, {"measurement": "IL-6, GM-CSF, MCP-1 and TNFα levels in the plasma", "setting": "[3]; [6]", "value": "similar"}, {"measurement": "lipid storage (cholesterol and triglyceride) in liver, spleen and small intestine", "setting": "[4]", "value": "completely cleaned up"}]}
